From patent publication US10925971B2, “Methods of treating PRLR positive breast cancer” (Regeneron Pharmaceuticals, Inc., priority 2016, dated 2021)

B1: H1H6958N2-DM1: anti-PRLR antibody H1H6958N2 conjugated to the maytansinoid DM1 through an SMCC linker (conjugate)
VH: QVQLVESGGGVVQPGRSLRLSCGASGFTFRNYGMQWVRQGPGKGLEWVTLISFDGNDKYYADSVKGRFTISRDNSKNTLFLQMNSLRTEDTAVYYCARGGDFDYWGQGTLVTVSS
VL: DIQMTQSPSSLSASVGDRVTITCRASQDIRKDLGWYQQKPGKAPKRLIYAASSLHSGVPSRFSGSGSGTEFTLTISSLQPEDFATYYCLQHNSYPMYTFGQGTKLEIK
B2: H1H6958N2: anti-PRLR antibody, receptor blocking, human IgG1 Fc form of H2M6958N2 of Table 1; HCVR/LCVR SEQ ID NOs 290/298 (antibody, V domains shown)
VH: B1 VH
VL: B1 VL

What was measured:
PRLR expressing cells = experiment: In vitro cell viability (cell kill) assay, several cell backgrounds; type: cell-based, human; conditions: PC3/hPRLR and MCF7/hPRLR cell lines
Description: PRLR-overexpressing cells, including HEK293, PC3, MCF7 and NCI-N87, were generated to assess the ability of anti-PRLR conjugated antibodies to reduce cell viability. For comparative purposes, PC3 and T47D cells with overexpressed ErbB2 were also generated, as well as an MCF7 cell line over-expressing both hPRLR and hErbB2. Briefly, Lipofectamine® 2000-mediated transfection methodology was utilized to generate HEK293 cells expressing human PRLR (HEK293/hPRLR) or human ErbB2 (HEK293/hErbB2). Lipofectamine LTX with Plus Reagent was used to generate PC3 cells expressing human PRLR (PC3/hPRLR) or human ErbB2 (PC3/hErbB2). Lentiviral-mediated transduction was utilized to generate MCF7 cells expressing human PRLR (MCF7/hPRLR), NCI-N87 cells expressing human PRLR (NCI-N87/hPRLR), T47D cells over-expressing human ErbB2 (T47D/hErbB2), and MCF7 cells expressing both human PRLR and human ErbB2 (MCF7/hPRLR/hErbB2). All lines were selected for at least two weeks in complete growth media plus appropriate selection reagents. Stably expressing populations were enriched for PRLR expression via FACS using the anti PRLR antibody Control I.
Next, the ability of anti-PRLR-DM1 antibody-drug conjugates (i.e., anti-PRLR antibodies conjugated to DM1 via a non-cleavable linker [SMCC]) to reduce cell viability was determined using in vitro cell based assays. Cells were seeded in PDL-coated 96 well plates at 1500 to 10000 cells per well in complete growth media and allowed to grow overnight. For cell viability curves, ADCs or free DM1 (as the methyl disulfide derivative DM1-SMe) were added to the cells at final concentrations ranging from 500 nM to 5 pM and incubated for 3 days. The 293, PC3 and T47D cells were incubated with CCK8 (Dojindo, Rockville, Md.) for the final 1-3 hours and the absorbance at 450 nm (OD450) was determined on a Flexstation3 (Molecular Devices, Sunnyvale, Calif.). MCF7 cells were treated with Hoechst 33342 nuclear stain while being fixed with 4% formaldehyde. Images were acquired on the ImageXpress micro XL (Molecular Devices, Sunnyvale, Calif.) and nuclear counts were determined via Columbus image analysis software (Perkin Elmer, Shelton, Conn.). Background OD450 values (PC3, 293, and T47D) or nuclear counts (MCF7) from digitonin (40 nM) treated cells was subtracted from all wells and viability was expressed as a percentage of the untreated controls. IC50 values were determined from a four-parameter logistic equation over a 10-point response curve (GraphPad Prism).

MCF7 (MCF7/ATCC) cells = experiment: In vitro cell viability (cell kill) assay, nuclear counts; type: cell-based, human; conditions: MCF7 cells, approximately 3000 copies of PRLR per cell
How it was run: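 Anti-PRLR–DM1 ADCs (non-cleavable SMCC linker) or free DM1-SMe, 500 nM to 5 pM for 3 days on parental or hPRLR-overexpressing lines. HEK293: CCK8 OD450; MCF7: Hoechst nuclear counts by imaging.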

MCF7/PRLR tumors = experiment: MCF7/PRLR breast tumor xenograft, tumor volume (Example 13); type: in vivo, NCr nude mice
Description: After MCF7 or MCF7/PRLR tumors reached an average volume of ˜150-200 mm^3 (14-16 days post implantation), mice were randomized into treatment groups (n=8-9 mice/group) and received a single dose or three once-weekly doses of H1H6958N2-DM1, control ADC, or vehicle control, administered systemically by intravenous tail-vein injection. Tumor size and body weight were measured in vivo twice per week throughout the duration of the study.
The T47Dv11 model was used to assess the activity of H1H6958N2-DM1 in a model with significant levels of endogenous PRLR. […] Initially, 10×10^6 parental T47D cells were implanted subcutaneously (SC) into the left flank of female C.B.-17 SCID mice (Taconic, Hudson N.Y.). Tumors were supplemented with a 90-day release 1.7 mg estrogen pellet (Innovative Research America). Where T47D tumors were observed, they were excised and cut into 3 mm fragments and subsequently implanted into the left flank of separate female C.B.-17 SCID mice. Subsequent passaging was performed until a large tumor was disaggregated into a single cell suspension. The cells (named T47Dv11) from this tumor were then cultured in vitro and expanded. […] For efficacy studies, mice were implanted with 7.5×10^6 T47Dv11 cells into the left flank of female C.B.-17 SCID mice supplemented with a 90-day release 0.72 mg/pellet estrogen pellet. For MCF7 and MCF7/PRLR tumor xenografts, 2×10^7 MCF7/PRLR cells were implanted SC into the left mammary fat pad of female NCr nude mice (7-8 weeks old) supplemented with 90-day release 0.72 mg/pellet estrogen pellets. Tumors were measured with calipers twice a week for the duration of each study. Tumor volume was calculated using the formula TV=(length×width^2)/2.

TM00107 PDX tumors = experiment: TM00107 patient derived xenograft (PDX) breast cancer model, tumor volume; type: in vivo, NOD SCID gamma (NSG) mice
Description: Efficacy of H1H6958N2-DM1 was also assessed in a patient derived xenograft (PDX) model of breast cancer that may better represent the response in patients. NOD SCID gamma (NSG) mice bearing tumor fragments of the TM00107 PDX breast cancer tumor were sourced from The Jackson Laboratories. The TM00107 PDX model was derived from an ER+/−/PR−/HER2− metastatic breast adenocarcinoma. PRLR expression was confirmed by microarray analysis and immunohistochemistry on tumor sample slides provided by The Jackson Laboratory (data not shown). When tumors were an average volume of ˜400-600 mm^3 (21 days post implantation), mice were randomized into treatment groups (n=7 mice/group) and were administered H1H6958N2-DM1, control ADC, or vehicle control by intravenous injection once weekly for a total of 4 weeks. A separate treatment group was administered paclitaxel by intravenous injection every 4 days for a total of 4 doses.

Row | Molecule | cell killing, non-cleavable DM1 ADCs versus cleavable MMAE ADCs (PRLR expressing cells) | MCF7 cell killing in vitro (MCF7 (MCF7/ATCC) cells) | antitumor efficacy (MCF7/PRLR tumors; single dose 10 and 15 mg/kg) | antitumor efficacy (MCF7/PRLR tumors; single dose at 2.5-15 mg/kg) | antitumor efficacy (MCF7/PRLR tumors; three once-weekly doses of 5 and 15 mg/kg) | average tumor volume (TM00107 PDX tumors; 10 mg/kg once weekly, day 30, compared to vehicle) | average tumor volumes (TM00107 PDX tumors; 20 mg/kg once weekly, day 30, compared to 20 mg/kg control ADC) | antitumor efficacy of controls (MCF7/PRLR tumors; MCF7/PRLR model, dose not stated)
1 | B1 | nearly equivalent cell killing | not inhibited | eradication of the tumors | significant antitumor efficacy observed at all doses | tumor eradication | no significant difference in average tumor volume | moderate but significant (p<0.01) decrease | –
2 | B2 | – | – | – | – | – | – | – | failed to induce any inhibition of tumor growth
